Test results as given in the supplement of paper PMC9112550, “Optimization of the antimicrobial peptide Bac7 by deep mutational scanning” (BMC Biology, 2022).

Each sequence was assayed on Escherichia coli TOP10 (assay: shrunken log2 fold change of peptide-encoding DNA abundance (4.5 h post-induction vs induction); higher = less antimicrobial activity (less host growth inhibition)). Settings: time post-induction: 4.5 h; library: site-saturation at positions 5, 18, 19, 20.
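Also: peptides expressed intracellularly from a pBAD plasmid library in pooled LB shake-flask culture, induced with 0.3% L-arabinose, DNA abundance read by NGS, three biological replicates, DESeq2 with apeglm shrinkage.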

Sequence | shrunken log2 fold change
RRIRERPPRLPRPRPRPCPTPRP | -0.204
RRIRMRPPRLPRPRPRPMRNPRP | 1.62
RRIRYRPPRLPRPRPRPYTPPRP | -1.28
RRIRYRPPRLPRPRPRPGCSPRP | -0.214
RRIRKRPPRLPRPRPRPPNYPRP | -0.19
RRIRFRPPRLPRPRPRPMTCPRP | -0.0088
RRIRYRPPRLPRPRPRPYTLPRP | -0.213
RRIRPRPPRLPRPRPRPSCEPRP | -0.386
RRIRKRPPRLPRPRPRPCPDPRP | -0.0203
RRIRMRPPRLPRPRPRPKHCPRP | 0.0651
RRIRMRPPRLPRPRPRPDQTPRP | 0.0101
RRIRARPPRLPRPRPRPQMEPRP | -0.154
RRIRCRPPRLPRPRPRPAEKPRP | -0.0214
RRIRGRPPRLPRPRPRPSIPPRP | -0.137
RRIRFRPPRLPRPRPRPVWWPRP | 0.148
RRIRHRPPRLPRPRPRPKLSPRP | 0.0757
RRIRIRPPRLPRPRPRPFSHPRP | -0.177
RRIRVRPPRLPRPRPRPCHAPRP | -0.311
RRIRHRPPRLPRPRPRPCCKPRP | 1.89
RRIRFRPPRLPRPRPRPFHGPRP | 0.00193
RRIRYRPPRLPRPRPRPNIPPRP | -1.09
RRIRRRPPRLPRPRPRPHMTPRP | 0.00051
RRIRKRPPRLPRPRPRPTLRPRP | 1.01

Sequence | shrunken log2 fold change
RRIRGRPPRLPRPRPRPAFHPRP | 0.209
RRIRARPPRLPRPRPRPKMAPRP | 0.291
RRIRSRPPRLPRPRPRPVEEPRP | 0.0884
RRIRERPPRLPRPRPRPHSCPRP | 0.00997
RRIRNRPPRLPRPRPRPAMFPRP | -0.204
RRIRRRPPRLPRPRPRPRSYPRP | 0.0753
RRIRQRPPRLPRPRPRPAIGPRP | 0.216
RRIRFRPPRLPRPRPRPFTEPRP | -0.869
RRIRIRPPRLPRPRPRPVSTPRP | -0.342
RRIRMRPPRLPRPRPRPRREPRP | 1.27
RRIRCRPPRLPRPRPRPTKMPRP | -0.301
RRIRWRPPRLPRPRPRPRCPPRP | 0.264
RRIRSRPPRLPRPRPRPYGIPRP | 0.104
RRIRGRPPRLPRPRPRPEDDPRP | 2.81
RRIRARPPRLPRPRPRPEAFPRP | 0.0217
RRIRFRPPRLPRPRPRPPYWPRP | 0.191
RRIRVRPPRLPRPRPRPPVVPRP | -0.0362
RRIRWRPPRLPRPRPRPKTFPRP | -0.0777
RRIRIRPPRLPRPRPRPKIWPRP | 0.145
RRIRVRPPRLPRPRPRPMSHPRP | 0.171
RRIRIRPPRLPRPRPRPDCFPRP | -0.211
RRIRLRPPRLPRPRPRPNPRPRP | 0.304
RRIRQRPPRLPRPRPRPIRHPRP | -0.182

Sequence | shrunken log2 fold change
RRIRQRPPRLPRPRPRPCQDPRP | 0.0207
RRIRFRPPRLPRPRPRPKPYPRP | -0.109
RRIRVRPPRLPRPRPRPGLAPRP | 0.166
RRIRQRPPRLPRPRPRPFRQPRP | -0.148
RRIRWRPPRLPRPRPRPTTIPRP | 0.127
RRIRWRPPRLPRPRPRPHFDPRP | -0.0757
RRIRQRPPRLPRPRPRPMKFPRP | -0.21
RRIRHRPPRLPRPRPRPWGAPRP | -0.0102
RRIRSRPPRLPRPRPRPSWTPRP | -0.299
RRIRLRPPRLPRPRPRPCFGPRP | -0.0493
RRIRARPPRLPRPRPRPLFEPRP | 0.629
RRIRFRPPRLPRPRPRPPDNPRP | -0.115
RRIRHRPPRLPRPRPRPTPVPRP | 0.137
RRIRVRPPRLPRPRPRPIQCPRP | 0.078
RRIRQRPPRLPRPRPRPTMKPRP | -0.314
RRIRWRPPRLPRPRPRPVFCPRP | 0.119
RRIRVRPPRLPRPRPRPDLGPRP | 0.155
RRIRKRPPRLPRPRPRPRMTPRP | 0.635
RRIRCRPPRLPRPRPRPMPLPRP | -0.643
RRIRSRPPRLPRPRPRPEWFPRP | -0.287
RRIRARPPRLPRPRPRPCRNPRP | -0.38
RRIRMRPPRLPRPRPRPWHAPRP | 0.098
RRIRMRPPRLPRPRPRPCQRPRP | 0.0132

Sequence | shrunken log2 fold change
RRIRLRPPRLPRPRPRPQCAPRP | 0.228
RRIRCRPPRLPRPRPRPCFEPRP | -0.00928
RRIRARPPRLPRPRPRPITPPRP | -0.0533
RRIRKRPPRLPRPRPRPYTAPRP | -0.338
RRIRKRPPRLPRPRPRPFGLPRP | -0.0305
RRIRDRPPRLPRPRPRPQLEPRP | -0.0748
RRIRHRPPRLPRPRPRPCLGPRP | 0.0158
RRIRCRPPRLPRPRPRPTQSPRP | 0.565
RRIRMRPPRLPRPRPRPNRPPRP | -0.0884
RRIRCRPPRLPRPRPRPAWQPRP | 0.359
RRIRRRPPRLPRPRPRPFMHPRP | 0.0444
RRIRARPPRLPRPRPRPNDTPRP | -0.283
RRIRCRPPRLPRPRPRPYIKPRP | -0.791
RRIRFRPPRLPRPRPRPMLIPRP | -0.217
RRIRSRPPRLPRPRPRPWYVPRP | -0.36
RRIRWRPPRLPRPRPRPRAQPRP | 0.56
RRIRARPPRLPRPRPRPFSWPRP | -0.0923
RRIRVRPPRLPRPRPRPRRRPRP | 0.271
RRIRDRPPRLPRPRPRPYQHPRP | -0.221
RRIRPRPPRLPRPRPRPHLHPRP | -0.0768
RRIRGRPPRLPRPRPRPTLTPRP | 1.1
RRIRERPPRLPRPRPRPMWVPRP | 0.292
